Reference: patent US7521047

How the values were obtained:
[1] = target: HLA-DR on GRANTA-519 cells (human); experiment: cell-based or functional assay
[2] = target: HLA-DR on KARPAS-422 cells (human); experiment: cell-based or functional assay
[3] = target: HLA-DR on MN-60 cells (human); experiment: cell-based or functional assay
[4] = target: HLA-DR on MHH-CALL-4 cells (human); experiment: cell-based or functional assay
[5] = target: HLA-DR on BJAB cells (human); experiment: cell-based or functional assay
[6] = target: HLA-DR on LP-1 cells (human); experiment: cell-based or functional assay
[7] = target: HLA-DR on L1236 cells (human); experiment: cell-based or functional assay
[8] = target: HLA-DR on KM-H2 cells (human); experiment: cell-based or functional assay
[9] = target: HLA-DR on MHH-PREB-1 cells (human); experiment: cell-based or functional assay
[10] = target: HLA-DR on L-363 cells (human); experiment: cell-based or functional assay
[11] = target: HLA-DR on SR-786 cells (human); experiment: cell-based or functional assay
[12] = target: HLA-DR on HD-MY-Z cells (human); experiment: cell-based or functional assay
[13] = target: HLA-DR on DOHH-2 cells (human); experiment: cell-based or functional assay
[14] = target: HLA-DR on EOL-1 cells (human); experiment: cell-based or functional assay
[15] = target: chimeric 0401-IE class II molecule on cells of transgenic mice (human/murine chimera); experiment: cell-based or functional assay
[16] = target: HLA-DR on RPMI-8226 cells (human); experiment: cell-based or functional assay
[17] = target: HLA-DR on chronic lymphoid leukemia (CLL) cells of patients (human); experiment: cell-based or functional assay
[18] = target: HLA-DR on EOL-1 cells (human); experiment: flow cytometry, EOL-1 cells stained with FITC-labelled L243 (HLA-DR expression)
[19] = target: HLA-DR on MN-60 cells (human); experiment: flow cytometry, MN-60 cells stained with FITC-labelled L243 (HLA-DR expression)
[20] = target: HLA-DR on MHH-PREB-1 cells (human); experiment: flow cytometry, MHH-PREB-1 cells stained with FITC-labelled L243 (HLA-DR expression)
[21] = target: HLA-DR on RPMI-8226 cells (human); experiment: flow cytometry, RPMI-8226 cells stained with FITC-labelled L243 (HLA-DR expression)
[22] = target: HLA-DR (allele and form not stated); experiment: not stated (Z. A. Nagy, unpublished)
[23] = target: HLA-DR on GRANTA-519 cells (human); experiment: flow cytometry, GRANTA-519 cells stained with FITC-labelled L243 (HLA-DR expression)
[24] = target: HLA-DR on KM-H2 cells (human); experiment: flow cytometry, KM-H2 cells stained with FITC-labelled L243 (HLA-DR expression)
[25] = target: HLA-DR on BONNA-12 cells (human); experiment: flow cytometry, BONNA-12 cells stained with FITC-labelled L243 (HLA-DR expression)
[26] = target: HLA-DR on RAJI cells (human); experiment: flow cytometry, RAJI cells stained with FITC-labelled L243 (HLA-DR expression)
[27] = target: HLA-DR on L-428 cells (human); experiment: cell-based or functional assay
[28] = target: HLA-DR on LG-2 cells (human); experiment: cell-based or functional assay
[29] = target: HLA-DR on MHH-CALL-2 cells (human); experiment: cell-based or functional assay
[30] = target: HLA-DR on BONNA-12 cells (human); experiment: cell-based or functional assay
[31] = target: HLA-DR on HC-1 cells (human); experiment: cell-based or functional assay
[32] = target: HLA-DR on HDLM-2 cells (human); experiment: cell-based or functional assay
[33] = target: HLA-DR on KARPAS-299 cells (human); experiment: cell-based or functional assay
[34] = target: HLA-DR on ARH-77 cells (human); experiment: cell-based or functional assay
[35] = target: HLA-DR on RAJI cells (human); experiment: cell-based or functional assay
[36] = target: HLA-DR on NALM-1 cells (human); experiment: cell-based or functional assay
[37] = target: HLA-DR on L-363 cells (human); experiment: flow cytometry, L-363 cells stained with FITC-labelled L243 (HLA-DR expression)
[38] = target: HLA-DR on HDLM-2 cells (human); experiment: flow cytometry, HDLM-2 cells stained with FITC-labelled L243 (HLA-DR expression)
[39] = target: HLA-DR on MHH-CALL-4 cells (human); experiment: flow cytometry, MHH-CALL-4 cells stained with FITC-labelled L243 (HLA-DR expression)
[40] = target: HLA-DR on KARPAS-299 cells (human); experiment: flow cytometry, KARPAS-299 cells stained with FITC-labelled L243 (HLA-DR expression)
[41] = target: HLA-DR on L-428 cells (human); experiment: flow cytometry, L-428 cells stained with FITC-labelled L243 (HLA-DR expression)
[42] = target: HLA-DR on HD-MY-Z cells (human); experiment: flow cytometry, HD-MY-Z cells stained with FITC-labelled L243 (HLA-DR expression)
[43] = target: HLA-DR on L1236 cells (human); experiment: flow cytometry, L1236 cells stained with FITC-labelled L243 (HLA-DR expression)
[44] = target: HLA-DR on BJAB cells (human); experiment: flow cytometry, BJAB cells stained with FITC-labelled L243 (HLA-DR expression)
[45] = target: HLA-DR on SR-786 cells (human); experiment: flow cytometry, SR-786 cells stained with FITC-labelled L243 (HLA-DR expression)
[46] = target: HLA-DR on LG-2 cells (human); experiment: flow cytometry, LG-2 cells stained with FITC-labelled L243 (HLA-DR expression)
[47] = target: HLA-DR on DOHH-2 cells (human); experiment: flow cytometry, DOHH-2 cells stained with FITC-labelled L243 (HLA-DR expression)
[48] = target: HLA-DR on HC-1 cells (human); experiment: flow cytometry, HC-1 cells stained with FITC-labelled L243 (HLA-DR expression)
[49] = target: HLA-DR on ARH-77 cells (human); experiment: flow cytometry, ARH-77 cells stained with FITC-labelled L243 (HLA-DR expression)
[50] = target: HLA-DR on LP-1 cells (human); experiment: flow cytometry, LP-1 cells stained with FITC-labelled L243 (HLA-DR expression)
[51] = target: HLA-DR on KARPAS-422 cells (human); experiment: flow cytometry, KARPAS-422 cells stained with FITC-labelled L243 (HLA-DR expression)
[52] = target: HLA-DR on NALM-1 cells (human); experiment: flow cytometry, NALM-1 cells stained with FITC-labelled L243 (HLA-DR expression)

MS-GPC-8 IgG4 (antibody), sequence (VH): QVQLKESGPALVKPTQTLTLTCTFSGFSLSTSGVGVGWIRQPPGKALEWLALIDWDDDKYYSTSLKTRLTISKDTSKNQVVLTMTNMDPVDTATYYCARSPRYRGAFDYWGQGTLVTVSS
MS-GPC-8 IgG4 (antibody), sequence (VL): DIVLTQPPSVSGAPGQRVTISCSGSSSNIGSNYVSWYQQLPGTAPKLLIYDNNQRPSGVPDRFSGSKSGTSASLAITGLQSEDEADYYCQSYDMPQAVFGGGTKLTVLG
L243 (antibody), sequence (VH): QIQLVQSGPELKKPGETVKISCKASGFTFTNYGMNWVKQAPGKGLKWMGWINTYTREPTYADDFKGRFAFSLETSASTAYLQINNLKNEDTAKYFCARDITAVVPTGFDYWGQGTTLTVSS
L243 (antibody), sequence (VL): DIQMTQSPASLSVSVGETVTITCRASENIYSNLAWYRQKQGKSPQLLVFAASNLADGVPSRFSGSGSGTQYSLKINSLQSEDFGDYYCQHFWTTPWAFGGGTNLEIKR

MS-GPC-8 IgG4 (antibody)
% Killing by mAb, 50 nM, 4 h [1]: 76%
% Killing by mAb, 50 nM, 4 h [2]: 51%
% Killing by mAb, 50 nM, 4 h [3]: 71%
% Killing by mAb, 50 nM, 4 h [4]: 43%
% Killing by mAb, 50 nM, 4 h [5]: 49%
% Killing by mAb, 50 nM, 4 h [6]: 61%
% Killing by mAb, 50 nM, 4 h [7]: 44%
% Killing by mAb, 50 nM, 4 h [8]: 75%
% Killing by mAb, 50 nM, 4 h [9]: 2%
% Killing by mAb, 50 nM, 4 h [10]: 26%
% Killing by mAb, 50 nM, 4 h [11]: 1%
% Killing by mAb, 50 nM, 4 h [12]: 49%
% Killing by mAb, 50 nM, 4 h [13]: 58%
% Killing by mAb, 50 nM, 4 h [14]: 36%
IC50 of inhibition of IL-2 secretion from T-Hyb 1 cells [15]: 11 nM
Maximum inhibition(%) of IL-2 secretion [15]: 100%
% Killing by mAb, 50 nM, 4 h [16]: 14%
viable CLL cells after 24 hours, 100 nM IgG (told for all three human IgGs) [17]: 33%
viable activated CLL cells after 4 hours, 100 nM IgG (average for all patient samples and antibodies) [17]: 24%

L243 (antibody)
MFL (mean fluorescence intensity) [18]: 536 MFL
MFL (mean fluorescence intensity) [19]: 1120 MFL
MFL (mean fluorescence intensity) [20]: 175 MFL
MFL (mean fluorescence intensity) [21]: 19 MFL
Kd [22]: 10 nM
MFL (mean fluorescence intensity) [23]: 1460 MFL
MFL (mean fluorescence intensity) [24]: 619 MFL
MFL (mean fluorescence intensity) [25]: 2430 MFL
MFL (mean fluorescence intensity) [26]: 617 MFL
% Killing by mAb, 200 nM, 4 h [1]: 83%
% Killing by mAb, 200 nM, 4 h [2]: 25%
% Killing by mAb, 200 nM, 4 h [3]: 46%
% Killing by mAb, 200 nM, 4 h [4]: 35%
% Killing by mAb, 200 nM, 4 h [5]: 53%
% Killing by mAb, 200 nM, 4 h [6]: 12%
% Killing by mAb, 200 nM, 4 h [7]: 52%
% Killing by mAb, 200 nM, 4 h [27]: 82%
% Killing by mAb, 200 nM, 4 h [8]: 81%
% Killing by mAb, 200 nM, 4 h [9]: 3%
% Killing by mAb, 200 nM, 4 h [28]: 79%
% Killing by mAb, 200 nM, 4 h [29]: 5%
% Killing by mAb, 200 nM, 4 h [30]: 92%
% Killing by mAb, 200 nM, 4 h [31]: 88%
% Killing by mAb, 200 nM, 4 h [32]: 77%
% Killing by mAb, 200 nM, 4 h [33]: 78%
% Killing by mAb, 200 nM, 4 h [10]: 6%
% Killing by mAb, 200 nM, 4 h [11]: 3%
% Killing by mAb, 200 nM, 4 h [12]: 35%
% Killing by mAb, 200 nM, 4 h [13]: 29%
% Killing by mAb, 200 nM, 4 h [14]: 22%
% Killing by mAb, 200 nM, 4 h [34]: 88%
% Killing by mAb, 200 nM, 4 h [16]: 6%
% Killing by mAb, 200 nM, 4 h [35]: 69%
% Killing by mAb, 200 nM, 4 h [36]: 44%
MFL (mean fluorescence intensity) [37]: 49 MFL
MFL (mean fluorescence intensity) [38]: 326 MFL
MFL (mean fluorescence intensity) [39]: 348 MFL
MFL (mean fluorescence intensity) [40]: 798 MFL
MFL (mean fluorescence intensity) [41]: 244 MFL
MFL (mean fluorescence intensity) [42]: 79 MFL
MFL (mean fluorescence intensity) [43]: 41 MFL
MFL (mean fluorescence intensity) [44]: 338 MFL
MFL (mean fluorescence intensity) [45]: 142 MFL
MFL (mean fluorescence intensity) [46]: 458 MFL
MFL (mean fluorescence intensity) [47]: 444 MFL
MFL (mean fluorescence intensity) [48]: 372 MFL
MFL (mean fluorescence intensity) [49]: 301 MFL
MFL (mean fluorescence intensity) [50]: 315 MFL
MFL (mean fluorescence intensity) [51]: 211 MFL
MFL (mean fluorescence intensity) [52]: 1080 MFL
